Data from patent US20110010785A1, “PRODUCTS AND THEIR USE FOR THE DIAGNOSIS, PREVENTION AND/OR CARE OF HUMAN AND/OR ANIMAL PATHOLOGIES CHARACTERISED BY THE ANOMALOUS DEPOSITION OF B-AMYLOID AND/OR AMYLOID-LIKE SUBSTANCE IN HUMAN AND/OR ANIMAL ORGANS AND TISSUES, AND SCREENING METHOD FOR DETERMINING THE RISK OF SUCH PATHOLOGIES” (Fondazione I.R.C.C.S Istituto Neurologico "Carlo Besta", priority 2007, published 2011).

Target: T1, wild-type Aβ1-40 (Homo sapiens, UniProt P05067)
T1 construct: lipophile probe (4-dodecylaminocarbonylfluorene-9-ylmethylsuccinimidyl carbonate), non-protein purification handle (N); made in house; host or cells: chemical solid phase synthesis (no expression host)
T1 sequence (P05067 672-711): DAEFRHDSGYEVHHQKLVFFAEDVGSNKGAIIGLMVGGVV
Assay: Inhibition of amyloidogenesis: hexapeptides co-incubated with wild-type Aβ1-40 (ultrastructural and histochemical study)
Format: biochemical
Conditions: for effect on fibrillogenesis of Aβ1-40: co-incubated with wild-type Aβ1-40, equimolar or in excess (hexapeptide:Aβ1-40=5:1)
Procedure: For the ultrastructural investigation, 5 μl of suspension of wild-type Aβ1-40, mutated Aβ1-40 and their equimolar mixture were drawn at incubation times in the range of 1 hour-20 days, deposited on nickel screen covered with Formvar-Carbon for 5 minutes, negatively coloured with an over-saturated solution of uranyl and observed under electronic microscope (EM109 Zeiss). On the twentieth day of incubation, aliquots of the samples were centrifuged at 15,000 g for 15 minutes. The pellets thus obtained were fixed in 2.5% glutaraldehyde in phosphate buffer, pH 7.4, post-fixed in 1% osmium tetroxide, dehydrated in acetone and included in epoxy rein (Spurr, Electron Microscopy Sciences). Ultrafine sections (500 Å) were collected on copper screens, coloured with uranyl acetate and lead citrate and observed under the electronic microscope.
In order to verify if and in what measure the aggregates were constituted by amyloid, 5 μl of solution of each sample, for the different incubation times, was collected on polylysinated slides (Bio-Optical), coloured with Congo Red and examined with polarised light microscope (Nikon Eclipse E-800).
The two hexapeptides were co-incubated with wild-type Aβ1-40 at equimolar concentration or in excess (hexapeptide:Aβ1-40=5:1). The mixtures were prepared for the ultrastructural and histochemical study as described in example 2.

Substance	effect on fibrillogenesis of Aβ1-40	inhibitory activity on fibrillogenesis relative to wild-type hexapeptide (co-incubated with wild-type Aβ1-40, equimolar or 5:1)
DAEFRH	inhibit the fibrillogenesis of Aβ1-40	
DVEFRH [synthetic peptide, first six amino acids of Aβ with valine in place of alanine in position 2]	inhibit the fibrillogenesis of Aβ1-40	more active than the corresponding wild-type
